{
  "source": "patent US20210246166A1",
  "about": "(Bayer, published 2021)",
  "binders": {"B1": {"name": "Example 90: ((N-Me)G)-IC+SRSL-((1S,2S,5R)-3-azabicyclo[3.1.0]hexane-2-carboxylic acid)-PI-(Pen)+IPE-NH2 (peptide)", "peptide": "[Sar]ICSRSL[Pro(3S,4R-methano)]PI[Pen]IPE-NH2", "modifications": "disulfide 3-11; N-terminus assumed", "SMILES": "CC[C@H](C)[C@H](NC(=O)CNC)C(=O)N[C@H]1CSSC(C)(C)[C@@H](C(=O)N[C@H](C(=O)N2CCC[C@H]2C(=O)N[C@@H](CCC(=O)O)C(N)=O)[C@@H](C)CC)NC(=O)[C@H]([C@@H](C)CC)NC(=O)[C@@H]2CCCN2C(=O)[C@@H]2[C@H]3C[C@H]3CN2C(=O)[C@H](CC(C)C)NC(=O)[C@H](CO)NC(=O)[C@H](CCCNC(=N)N)NC(=O)[C@H](CO)NC1=O"}, "B2": {"name": "Example 150: ((N-Me)G)-IC+SRSLP-(Oic)-I-(Pen)+IP-(PEG7(25 atoms))-NH2 (peptide)", "peptide": "[Sar]ICSRSLP[Oic]I[Pen]IP[PEG7]-NH2", "modifications": "disulfide 3-11; N-terminus assumed", "SMILES": "CC[C@H](C)[C@H](NC(=O)CNC)C(=O)N[C@H]1CSSC(C)(C)[C@@H](C(=O)N[C@H](C(=O)N2CCC[C@H]2C(=O)NCCOCCOCCOCCOCCOCCOCCOCCC(N)=O)[C@@H](C)CC)NC(=O)[C@H]([C@@H](C)CC)NC(=O)[C@@H]2C[C@@H]3CCCC[C@@H]3N2C(=O)[C@@H]2CCCN2C(=O)[C@H](CC(C)C)NC(=O)[C@H](CO)NC(=O)[C@H](CCCNC(=N)N)NC(=O)[C@H](CO)NC1=O"}, "B3": {"name": "Example 54: VIC+SRS-((tBu)A)-PPI-(Pen)+IPD-NH2 (peptide)", "peptide": "VICSRS[tBuAla]PPI[Pen]IPD-NH2", "modifications": "disulfide 3-11; N-terminus assumed", "SMILES": "CC[C@H](C)[C@H](NC(=O)[C@@H](N)C(C)C)C(=O)N[C@H]1CSSC(C)(C)[C@@H](C(=O)N[C@H](C(=O)N2CCC[C@H]2C(=O)N[C@@H](CC(=O)O)C(N)=O)[C@@H](C)CC)NC(=O)[C@H]([C@@H](C)CC)NC(=O)[C@@H]2CCCN2C(=O)[C@@H]2CCCN2C(=O)[C@H](CC(C)(C)C)NC(=O)[C@H](CO)NC(=O)[C@H](CCCNC(=N)N)NC(=O)[C@H](CO)NC1=O"}, "B4": {"name": "Example 153: AIC+SRSLP-(Oic)-IC+IPD-OH (peptide)", "peptide": "AICSRSLP[Oic]ICIPD-OH", "modifications": "disulfide 3-11; N-terminus assumed", "SMILES": "CC[C@H](C)[C@H](NC(=O)[C@H](C)N)C(=O)N[C@H]1CSSC[C@@H](C(=O)N[C@H](C(=O)N2CCC[C@H]2C(=O)N[C@@H](CC(=O)O)C(=O)O)[C@@H](C)CC)NC(=O)[C@H]([C@@H](C)CC)NC(=O)[C@@H]2C[C@@H]3CCCC[C@@H]3N2C(=O)[C@@H]2CCCN2C(=O)[C@H](CC(C)C)NC(=O)[C@H](CO)NC(=O)[C@H](CCCNC(=N)N)NC(=O)[C@H](CO)NC1=O"}, "B5": {"name": "Example 88: ((N-Me)G)-IC+SRSLP-(Oic)-I-(Pen)+IPD-OH (peptide)", "peptide": "[Sar]ICSRSLP[Oic]I[Pen]IPD-OH", "modifications": "disulfide 3-11; N-terminus assumed", "SMILES": "CC[C@H](C)[C@H](NC(=O)CNC)C(=O)N[C@H]1CSSC(C)(C)[C@@H](C(=O)N[C@H](C(=O)N2CCC[C@H]2C(=O)N[C@@H](CC(=O)O)C(=O)O)[C@@H](C)CC)NC(=O)[C@H]([C@@H](C)CC)NC(=O)[C@@H]2C[C@@H]3CCCC[C@@H]3N2C(=O)[C@@H]2CCCN2C(=O)[C@H](CC(C)C)NC(=O)[C@H](CO)NC(=O)[C@H](CCCNC(=N)N)NC(=O)[C@H](CO)NC1=O"}, "B6": {"name": "Example 41: AIC+SRS-((tBu)A)-P-((6S)-5-Azaspiro[2.4]heptane-6-carboxylic acid)-I-((N-Me)C)+IPD-NH2 (peptide)", "peptide": "AICSRS[tBuAla]P[Pro(4-spirocPr)]I[NMeC]IPD-NH2", "modifications": "disulfide 3-11; N-terminus assumed", "SMILES": "CC[C@H](C)[C@H](NC(=O)[C@H](C)N)C(=O)N[C@H]1CSSC[C@@H](C(=O)N[C@H](C(=O)N2CCC[C@H]2C(=O)N[C@@H](CC(=O)O)C(N)=O)[C@@H](C)CC)N(C)C(=O)[C@H]([C@@H](C)CC)NC(=O)[C@@H]2CC3(CC3)CN2C(=O)[C@@H]2CCCN2C(=O)[C@H](CC(C)(C)C)NC(=O)[C@H](CO)NC(=O)[C@H](CCCNC(=N)N)NC(=O)[C@H](CO)NC1=O"}},
  "note": "Bridge positions count the residues as written; N and C are the ends. Square brackets hold non-standard residues; d marks the D form. Ends that are not written are not given here. Pro(3S,4R-methano) = O=C(O)[C@H]1NC[C@@H]2C[C@@H]21; Pro(4-spirocPr) = O=C(O)[C@@H]1CC2(CC2)CN1; Oic = O=C(O)[C@@H]1C[C@@H]2CCCC[C@@H]2N1; Pro‑D2 = L-proline (3,4-2H), deuterated; PEG7 = NCCOCCOCCOCCOCCOCCOCCOCCC(=O)O; tBuAla = CC(C)(C)C[C@H](N)C(=O)O; PEG5 = NCCOCCOCCOCCOCCOCCC(=O)O; Pen = CC(C)(S)[C@H](N)C(=O)O; NMeC = CN[C@@H](CS)C(=O)O; Sar = CNCC(=O)O",
  "data": [
    {"biological_target": "T1, recombinant rat MASP1 active protease (amino acids 302-704, C-terminal His Tag) (rat, UniProt Q8CHN8 302-704)", "T1 sequence": "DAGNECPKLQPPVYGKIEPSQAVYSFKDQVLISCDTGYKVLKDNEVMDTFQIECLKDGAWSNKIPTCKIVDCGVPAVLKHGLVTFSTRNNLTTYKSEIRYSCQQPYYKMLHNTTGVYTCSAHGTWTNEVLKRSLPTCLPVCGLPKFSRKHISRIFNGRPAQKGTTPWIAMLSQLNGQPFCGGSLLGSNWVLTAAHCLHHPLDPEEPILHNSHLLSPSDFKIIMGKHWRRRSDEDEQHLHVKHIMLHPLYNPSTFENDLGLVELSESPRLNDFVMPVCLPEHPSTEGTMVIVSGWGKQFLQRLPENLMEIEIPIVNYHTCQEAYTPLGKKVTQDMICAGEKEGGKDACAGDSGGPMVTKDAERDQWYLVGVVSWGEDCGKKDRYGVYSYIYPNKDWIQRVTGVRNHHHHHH", "assay": "cell-based or functional assay", "units": {"rat MASP1 IC50": "nM"}, "values": [
      {"binder": "B1", "rat MASP1 IC50": 67},
      {"binder": "B2", "rat MASP1 IC50": 120},
      {"binder": "B3", "rat MASP1 IC50": 160},
      {"binder": "B4", "rat MASP1 IC50": 40},
      {"binder": "[Sar]ICSRSLP[Oic]I[Pen]IP-{PEG5-NH2} (disulfide 3-11)", "note": "[Example 97: ((N-Me)G)-IC+SRSLP-(Oic)-I-(Pen)+IP-(PEG4(19 atoms))-NH2]", "rat MASP1 IC50": 120},
      {"binder": "[Sar]ICSRSLP[Oic]I[Pen]IP-NH2 (disulfide 3-11; also: HCl salt)", "note": "[Example 67: ((N-Me)G)-IC+SRSLP-(Oic)-I-(Pen)+IP-NH2 (HCl salt)]", "rat MASP1 IC50": 72},
      {"binder": "[Sar]ICSRSLP[Oic]I[Pen]IP-{PEG5‑CH2CO2H (18 atoms)-NH2} (disulfide 3-11)", "note": "[Example 83: ((N-Me)G)-IC+SRSLP-(Oic)-I-(Pen)+IP-(PEG5-CH2CO2H (18 atoms))-NH2]", "rat MASP1 IC50": 120},
      {"binder": "B5", "rat MASP1 IC50": 36},
      {"binder": "B6", "rat MASP1 IC50": 28},
      {"binder": "AICSRSL[Pro‑D2][Oic]I[Pen]IPD-OH (disulfide 3-11)", "note": "[Example 142: AIC+SRSL-(Pro-D2)-(Oic)-I-(Pen)+IPD-OH]", "rat MASP1 IC50": 10.9}
    ]},
    {"biological_target": "recombinant rat MASP2 active protease (amino acids 296-685, C-terminal His Tag) (rat, UniProt Q9JJS8 296-685)", "sequence (Q9JJS8 other isoform, or with tags, fused parts or gaps limits assumed)": "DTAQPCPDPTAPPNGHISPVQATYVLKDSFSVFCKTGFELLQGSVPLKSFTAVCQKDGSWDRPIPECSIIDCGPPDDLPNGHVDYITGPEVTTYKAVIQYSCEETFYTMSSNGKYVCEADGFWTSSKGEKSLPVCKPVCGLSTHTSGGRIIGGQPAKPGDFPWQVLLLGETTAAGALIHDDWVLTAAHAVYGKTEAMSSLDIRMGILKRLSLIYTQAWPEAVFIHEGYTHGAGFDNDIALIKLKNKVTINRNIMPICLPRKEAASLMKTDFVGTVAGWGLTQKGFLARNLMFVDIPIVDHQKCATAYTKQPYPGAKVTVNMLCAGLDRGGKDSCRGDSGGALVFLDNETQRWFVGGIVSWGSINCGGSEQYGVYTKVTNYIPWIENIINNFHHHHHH", "assay": "cell-based or functional assay", "units": {"rat MASP2 IC50": "nM"}, "values": [
      {"binder": "B1", "rat MASP2 IC50": 55},
      {"binder": "B2", "rat MASP2 IC50": 53},
      {"binder": "B3", "rat MASP2 IC50": 48},
      {"binder": "B4", "rat MASP2 IC50": 50.3},
      {"binder": "[Sar]ICSRSLP[Oic]I[Pen]IP-{PEG5-NH2} (disulfide 3-11)", "note": "[Example 97: ((N-Me)G)-IC+SRSLP-(Oic)-I-(Pen)+IP-(PEG4(19 atoms))-NH2]", "rat MASP2 IC50": 51},
      {"binder": "[Sar]ICSRSLP[Oic]I[Pen]IP-NH2 (disulfide 3-11; also: HCl salt)", "note": "[Example 67: ((N-Me)G)-IC+SRSLP-(Oic)-I-(Pen)+IP-NH2 (HCl salt)]", "rat MASP2 IC50": 36},
      {"binder": "[Sar]ICSRSLP[Oic]I[Pen]IP-{PEG5‑CH2CO2H (18 atoms)-NH2} (disulfide 3-11)", "note": "[Example 83: ((N-Me)G)-IC+SRSLP-(Oic)-I-(Pen)+IP-(PEG5-CH2CO2H (18 atoms))-NH2]", "rat MASP2 IC50": 48},
      {"binder": "B5", "rat MASP2 IC50": 68},
      {"binder": "B6", "rat MASP2 IC50": 13},
      {"binder": "AICSRSL[Pro‑D2][Oic]I[Pen]IPD-OH (disulfide 3-11)", "note": "[Example 142: AIC+SRSL-(Pro-D2)-(Oic)-I-(Pen)+IPD-OH]", "rat MASP2 IC50": 17.1}
    ]}
  ]
}
